No end group written: not given here.
Key:
[1] = target: T1, Biotin PSGL-1(290-310) peptide (human, N-terminal acetyl; C-terminal Lys-biotin); test: ELISA, streptavidin-immobilized biotin peptide [cont.]
T1 peptide: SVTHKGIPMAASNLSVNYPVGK
Experimental: (§1) A typical ELISA experiment involved binding of a single concentration or serially diluted mAb in assay buffer (3% BSA in PBS containing 0.05% Tween®20, pH 7.4) onto BSA blocked high binding microtiter plate half-wells (Corning Cat. #3690), which contained PSGL-1 protein or streptavidin-immobilized biotin peptide. After incubation for 45 min. at 37° C., the plate was washed 3 times with wash buffer (PBS containing 0.05% Tween®20, pH 7.4), and an appropriate HRP-conjugated secondary antibody added (25 ul/well) (HRP goat anti-mouse or anti-human IgG). After 45 min. incubation at 37° C., the plate was washed and antibody bound to plate-immobilized target was determined at A450 nm using HRP substrate (3,3′5,5′-tetramethylbenzidine (TMB)). For each antibody, duplicate values were averaged and assay background subtracted.

[2] = target: T2, Biotin PSGL-1(105-125) peptide (human, N-terminal acetyl; C-terminal Lys-biotin); test: as above
T2 peptide: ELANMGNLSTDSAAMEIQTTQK
Experimental: as §1

PSGL-1(49-56)-Biotin = target: T3, PSGL-1(49-56)-Biotin (human, UniProt Q14242); test: ELISA, plate-immobilized biotin peptide
T3 construct: synthetic peptide; also called short PSGL-1 49-56 peptide with C-terminal biotin
T3 peptide (looked up): LDYDFLPE-biotin

[3] = target: T4, PSGL-1 endogenously expressed on HL-60 cells (UniProt Q14242 42-412); test: flow cytometry on HL-60 cells
T4 construct: whole, on cells
T4 sequence (looked up): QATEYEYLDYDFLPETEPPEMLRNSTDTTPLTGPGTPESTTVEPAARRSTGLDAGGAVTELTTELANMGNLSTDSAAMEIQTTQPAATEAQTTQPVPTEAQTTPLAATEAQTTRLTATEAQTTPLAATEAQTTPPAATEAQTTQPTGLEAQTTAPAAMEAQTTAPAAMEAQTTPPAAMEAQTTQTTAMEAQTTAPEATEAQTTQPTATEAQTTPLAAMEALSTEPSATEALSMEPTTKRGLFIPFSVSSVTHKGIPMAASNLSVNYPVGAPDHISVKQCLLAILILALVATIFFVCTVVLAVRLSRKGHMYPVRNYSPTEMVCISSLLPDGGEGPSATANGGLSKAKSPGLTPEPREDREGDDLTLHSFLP
Experimental: A typical flow cytometry assay was performed by resuspending HL-60 cells in FACS buffer (5% FBS and 0.05% Sodium Azide in PBS, pH 7.2) on ice, pelleting cells by centrifugation at 500×g for 3 min, washing cells with FACS buffer, and then blocking Fc receptors on the cells with Fc block (human TruStain FcX™, BioLegend Cat. #422302) on ice for 10 min. After washing, 50,000 cells/50 ul in FACS buffer was added to each well of a 96-well round bottomed plate (Costar, Cat. #3797), and 50 ul of serially diluted (0.06 nM-1.0 uM) test or isotype control antibody was added into duplicate wells. The plate was covered and incubated on ice for 1 h. After washing, Phycoerythrin (PE) conjugated anti-human IgG secondary antibody (Abcam; Cat. #ab99825) was added to each well and the plate incubated in the dark on ice for 30 min. After washing, the cells were fixed (1% paraformaldhyde).

[4] = target: T5, Biotin PSGL-1(42-62) peptide, unmodified (human, C-terminal Lys-biotin); test: ELISA, plate-bound peptide
T5 construct: Residues 42-62 followed by GGGK-biotin; also called WT; wild-type
T5 peptide: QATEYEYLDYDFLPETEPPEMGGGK

[5] = target: T5, Biotin PSGL-1(42-62) peptide, unmodified; test: capture ELISA; against 3 x sY peptide
Summary of the method: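 Direct format: anti-PSGL-1 mAb at a single concentration (2–500 nM) or serially diluted (0.002–100 nM) on immobilized target, detected with HRP anti-IgG and TMB at A450; 45 min steps at 37° C. Capture format: coated mAb (3 ug/mL) binds biotinylated unmodified or sulfotyrosine peptide (3 nM–3 uM), detected with HRP-streptavidin.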

[6] = target: T6, Biotin PSGL-1(42-62) Y51A peptide (C-terminal Lys-biotin); test: alanine-scan ELISA, streptavidin-immobilized biotin peptide
T6 peptide: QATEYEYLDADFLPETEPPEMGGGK

E47A = target: T7, E47A (C-terminal Lys-biotin); test: as above
T7 construct: alanine-scan peptide; also called Biotin PSGL-1(42-62) E47A peptide; 47E
T7 peptide: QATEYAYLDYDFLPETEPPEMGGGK

P59A = target: T8, P59A (C-terminal Lys-biotin); test: as above
T8 construct: alanine-scan peptide; also called Biotin PSGL-1(42-62) P59A peptide; 59P
T8 peptide: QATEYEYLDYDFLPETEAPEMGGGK

P60A = target: T9, P60A (C-terminal Lys-biotin); test: as above
T9 construct: alanine-scan peptide; also called Biotin PSGL-1(42-62) P60A peptide; 60P
T9 peptide: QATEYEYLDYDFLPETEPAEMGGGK

Q42A = target: T10, Q42A (C-terminal Lys-biotin); test: as above
T10 construct: alanine-scan peptide; also called Biotin PSGL-1(42-62) Q42A peptide; 42Q
T10 peptide: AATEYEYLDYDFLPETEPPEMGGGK

T44A = target: T11, T44A (C-terminal Lys-biotin); test: as above
T11 construct: alanine-scan peptide; also called Biotin PSGL-1(42-62) T44A peptide; 44T
T11 peptide: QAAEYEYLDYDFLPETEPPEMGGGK

B1: 18K07 (antibody, V domains shown)
VH: QIQLVQSGPELKKPGETVKISCEASGYTFTTYGMNWVKQAPGKGLKWMGWINTYSGVPTYADDFQGRFAFSVETSATTAYLQINNLKNEDAATYFCARSDDTYYGFAYWGQGTLVTVSA
VL: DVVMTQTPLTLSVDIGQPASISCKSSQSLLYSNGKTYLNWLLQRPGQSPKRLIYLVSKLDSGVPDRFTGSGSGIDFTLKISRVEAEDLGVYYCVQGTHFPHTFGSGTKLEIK
notes: From mouse immunisation; only variable domains given
- binding result [1]: no binding (tested: 10 nM)
- binding result [2]: no binding (tested: 10 nM)

B2: 16L15 (antibody, V domains shown)
VH: DVKLVESGGGLVKLGGSLKLSCAASGFTFSSYYMSWVRQTPEKRLEWVATISNGGGSTYYPDSVKDRFTISRDNAKNTLYLQMSSLNSEDTAVYYCAKPLYYSNPWFAYWGQGTLVTVSA
VL: DVLLTQTPLSLPVSLGDQASISCRSSQSIVHSNGNTYLEWYLQKPGQSPKLLIYKVSNRFSGVPDRFSGSGSGTDFTLKISRVEAEDLGVYYCFQGSHVPRTFGGGTKLEIK
notes: as for B1
- binding result (PSGL-1(49-56)-Biotin): no binding (tested: Log M -7.7 (about 20 nM))

B3: 19L04 (antibody, IgG4, V domains shown)
VH: QIQLVQSGPELKKPGETVKISCKASGYTFTTYGMSWVKQAPGKGLKWMGWINTYSGVPTYADDFKGRFAFSLETSASTAYLQINNLKIEDTATYFCARHYYGSHYFDYWGQGTTLTVSS
VL: DIMMTQSPSSLAMSVGQKVTLRCKSSQSLLNSSNQKNYLAWYQQKPGQSPKLLVYFASTRESGVPVRFIGSGSGTDFTLTISSMQAEDLADYFCQQHYFSPLTFGAGTKLELK
notes: as for B1
- EC50 [3]: 2 nM

B4: 10F01 (antibody, IgG4, V domains shown)
VH: EVQLVQSGGGLVQPGGSLRLSCAASGFTFSSYAMSWVRQAPGKGLEWVSALRGGDGGTYHADSVKGRFTISGDSSKNTLYLQMNSLRAEDTAVYYCARRMVGAAYAFDIWGQGTMVTVSS
VL: LPVLTQPHSVSESPGKTVTISCTRSSGSIADNFVQWYRQRPGSAPTTVIYEGDQRPSGVPGRFSGSIDSSSNSASLTISGLQTDDEADYYCQSFDSYNRRTHVVFGGGTKLTVL
- fold weaker binding than to sulfotyrosine PSGL-1 42-62 [4]: > 500 fold

B5: 20I15 (antibody, V domains shown)
VH: EVKLVESGGGLVQPGGSLSLSCAASGFTFTDYYMSWVRQPPGKALEWLGFIRNKANGYTTEYSASVKGRFTISRDNSQSILYLQMNALRAEDSATYYCARTYLRRGYFDVWGTGTTVTVSS
VL: DIVLTQSPASLAVSLGQRATISCRASKSVSTSGYSYMHWFQQKPGQPPKLLIYLASNLESGVPARFSGSGSGTDFTLNIHPVEEEDAATYYCQHSRELPLTFGAGTKLELK
notes: From mouse immunisation; only variable domains given; also called 20115
- EC50 [3]: 1.4 nM
- fold weaker binding than to sulfotyrosine PSGL-1 42-62 [4]: > 50 fold
- EC50/EC50 3x(SO3)Y [5]: ~10 fold

B6: 03D07 (antibody, IgG4, V domains shown)
VH: EVKLLESGGGLVQPGGSLRLSCAASGFTFSSYALSWVRQAPGKGLEWVSAISGSGGNTYYADSVKGRFTISRDNSKNTLYLQMNSLRAEDTAVYYCAKVVGATNYWGQGTLVTVSS
VL: DIVMTQTPLSLPVTLGQPASISCRSSQSLVYSDGHTYLSWFHQRPGQSPRRLIYKVSIRDSGVPDRFSGSGSGTDFTLKISRVEAEDVGVYYCMQRLQIPLTFGGGTKVEIK
- EC50/EC50 3x(SO3)Y [5]: > 100 fold

B7: 18F02 (antibody, V domains shown)
VH: QVQLQQPGAELVKPGASVKLSCKASGYTFTSYWMHWVKQRPGQGLEWIGMIHPNSGRTNYNEKFKSKATLTVDKSSSTAYMQLSSLTSEDSAVYYCARSDYWGQGTTLTVSS
VL: DIVMTQAAFSNPVTLGTSASISCRSSKSLLHSDGITYLYWFLQRPGQSPQLLIYRMSNLASGVPDRFSGSGSGTDFTLRISRVEAEDVGVYYCAQMLEFPRTFGGGTKLEIK
notes: as for B1
- binding result [1]: no binding (tested: 10 nM)
- binding result [2]: no binding (tested: 10 nM)
- binding result [6]: binds
- binding result (E47A): binds
- binding result (P59A): binds
- binding result (P60A): binds
- binding result (Q42A): binds
- binding result (T44A): binds

B8: 43B6 (antibody, V domains shown)
VH: EVQLQQSGPDLVKPGALVKISCKASGYSFTAYYIHWVKQSHGKSLEWIGRVNPNTGGTSYNPKFKGKAILNVDKSSSTAYMELRSLTSEDSAVYYCARSGSPYYRYDDWGQGTTLTVSS
VL: ENVLTQSPAIMSASPGEKVTMTCRASSTVNSTYLHWFQQKSGASPKLWIYGSSNLASGVPARFSGSGSGTSYSLTISSVEAEDAATYYCQQYSGYPLTFGAGTTLELK
notes: Control anti-PSGL-1 mAb, recombinant; only variable domains given; also called 43B3
- binding result [6]: binds
- binding result (E47A): binds
- binding result (P59A): binds
- binding result (P60A): binds
- binding result (Q42A): binds
- binding result (T44A): binds
- EC50 (read off the curve) (PSGL-1(49-56)-Biotin): ~0.4 nM
